Results: paper PMC5682392, “Site-Directed Mutagenesis Study Revealed Three Important Residues in Hc-DAF-22, a Key Enzyme Regulating Diapause of Haemonchus contortus” (Frontiers in Microbiology, 2017)

Assays:
[1] = system: CC(=O)CC(=O)SCCNC(=O)CCNC(=O)[C@H](O)C(C)(C)COP(=O)(O)OP(=O)(O)OC[C@H]1O[C@@H](n2cnc3c(N)ncnc32)[C@H](O)[C@@H]1OP(=O)(O)O; assay: purified protein; type: biochemical, Haemonchus contortus; conditions: 60 μM CoA co-substrate, 20 mM MgCl2, 50 mM Tris-Cl pH 8.1 (pH 8.0 also stated), 37°C, varied substrate not given, taken as AcAc-CoA
purified protein = substrate: CC(=O)CC(=O)SCCNC(=O)CCNC(=O)[C@H](O)C(C)(C)COP(=O)(O)OP(=O)(O)OC[C@H]1O[C@@H](n2cnc3c(N)ncnc32)[C@H](O)[C@@H]1OP(=O)(O)O; assay: purified protein; type: biochemical, Haemonchus contortus; conditions: 60 μM CoA co-substrate, 20 mM MgCl2, 50 mM Tris-Cl pH 8.1 (pH 8.0 also stated), 37°C, varied substrate not given, taken as AcAc-CoA, text prints 33.765

Molecule	Km [1] [µM]	Vmax [1] [µM/min]	Km (purified protein) [µM]	Vmax (purified protein) [µM/min]
Hc-DAF-22 (Haemonchus contortus; C84S)	51.25	0.693		
Hc-DAF-22 (Haemonchus contortus; H299A)	79.85	1.39		
Hc-DAF-22 (Haemonchus contortus; H349A)	78.50	0.765		
Hc-DAF-22 (Haemonchus contortus) (protein) MGKSKVYVIGVGMTKFCKPGSRDWDYPDMVKEAVNMALDDCSLKYTDIQQATVGYLFGGTCCGQRALYELGFTGIPIFNVNNACASGSSGLYLCKQIIESGNSDVVLACGFEKMATGSLDTQAGNSDGRALSVDNHIQVMSDTYGLFPAPITAQMFANAGKEHMEKYGTKREHFAKIAWKNHLHSVHNPNSQFTKEFSLDQVMNARKIYDFMGLLECSPTSDGSAAAVLCSERFLEQNPRLKPQAVEIVGLELGTDQPSVFKENSNIKMIGFDMIKKISSDLYRNTGLCPNDVQVIELHDCFAPNELITYEALGLCDVGKGGTIVDRGDNTYGGKWVINPSGGSISKGHPIGATGVAQVVELSNQLRGKCGKRQVPNCKIAMQHNIGIGGAGVVGLYRLAYPSSTCPPTTKSSPTMSAFKSDVIFEEIKQRINEEKELVKKIATSFRIIITGEDGTVKKWTIDAKSDTPYVGDDDRKVEVEITIKDSDFMNIAAGKLKADQAFMQGKMKLKGNIAKSMKLKTLLDPKMLKAKI			33.76	1.78
